Measured values: US20260043020A1, “BINDING MEMBERS WITH ALTERED DIVERSITY SCAFFOLD DOMAINS” (priority 2016, published 2026)

Legend:
trypsin [1] = experiment: TRF ELISA, Fab on biotinylated trypsin
trypsin [2] = experiment: monoclonal phage TRF ELISA
trypsin [3] = experiment: phage TRF ELISA; GlyAla (Pro3Gly, Arg4Ala) mutant against the clone

TRF signal for 0.6 ug/mL Fab (trypsin [1])	TRF signal for 2.4 ug/mL Fab (trypsin [1])	TRF signal for 10 ug/mL Fab (trypsin [1])	trypsin binding signal (FU) (trypsin [2])	% reduction in binding signal (trypsin [3]) [%]	Binder
2390	16600	55600	–	–	KB_A01 Fab (Fab, V domains shown) VH: EVQLVESGGGLVRPGGSLRLSCAASGFTFSSYAMSWVRQAPGKGLEWVSAISGSGGSTYYADSVKGRFTISRDNTKNSLYLQMTSLRADDTAFYYCVKDFGPGYGTGWFDYWGPGTLVTVSS VL: YLNWYQQKPGKAPKLLIYAAEVCPRILMRCKQDSDCLAGCVCGPNGFCGGTSGVPSRFSGSRSGTEFTLTISSLQPEDFATYYCQKVDDYPLTFGGGTKVEIKR
–	–	–	20200	93	KB_A01 (scFv, V domains shown) VH: EVQLVESGGGLVRPGGSLRLSCAASGFTFSSYAMSWVRQAPGKGLEWVSAISGSGGSTYYADSVKGRFTISRDNTKNSLYLQMTSLRADDTAFYYCVKDFGPGYGTGWFDYWGPGTLVTVSS VL: YLNWYQQKPGKAPKLLIYAAEVCPRILMRCKQDSDCLAGCVCGPNGFCGGTSGVPSRFSGSRSGTEFTLTISSLQPEDFATYYCQKVDDYPLTFGGGTKVEIKR
46800	205000	289000	–	–	KB_C09 Fab (Fab, V domains shown) VH: EVQLVESGGGLVRPGGSLRLSCAASGFTFSSYAMSWVRQAPGKGLEWVSAISGSGGSTYYADSVKGRFTISRDNTKNSLYLQMTSLRADDTAFYYCVKDFGPGYGTGWFDYWGPGTLVTVSS VL: AVNWYQQLPGKAPKLLIYAAGRCPRILMRCKQDSDCLAGCVCGPNGFCGGGSGVPDRFSGSIDSSSNSASLTISGLRAEDEADYYCQSYDSSNHWVFGGGTKLTVLG
48900	141000	212000	–	–	KB_A11 Fab (Fab, V domains shown) VH: EVQLVESGGGLVRPGGSLRLSCAASGFTFSSYAMSWVRQAPGKGLEWVSAISGSGGSTYYADSVKGRFTISRDNTKNSLYLQMTSLRADDTAFYYCVKDFGPGYGTGWFDYWGPGTLVTVSS VL: YLNWYQQKPGKAPKLLIYAAEICPRILMRCKQDSDCLAGCVCGPNGFCGPSSGIPARFSGSGYGTDFTLTINNIESEDAAYYFCLQHDNFPYTFGQGTKVEIKR
–	–	–	183000	96	KB_A02 (scFv, V domains shown) VH: EVQLVESGGGLVRPGGSLRLSCAASGFTFSSYAMSWVRQAPGKGLEWVSAISGSGGSTYYADSVKGRFTISRDNTKNSLYLQMTSLRADDTAFYYCVKDFGPGYGTGWFDYWGPGTLVTVSS VL: AVNWYQQLPGKAPKLLIYAAAKCPRILMRCKQDSDCLAGCVCGPNGFCGGASGVSDRFSGSIDSSSNSASLTISGLKPEDEGDYYCQSYDSSNRWVFGGGTKVTVLG
153000	247000	276000	–	–	KB_C07 Fab (Fab, V domains shown) VH: EVQLVESGGGLVRPGGSLRLSCAASGFTFSSYAMSWVRQAPGKGLEWVSAISGSGGSTYYADSVKGRFTISRDNTKNSLYLQMTSLRADDTAFYYCVKDFGPGYGTGWFDYWGPGTLVTVSS VL: AVNWYQQLPGKAPKLLIYAAVGCPRILMRCKQDSDCLAGCVCGPNGFCGSASGVSDRFSGSKSGTSASLAISGLRSEDEADYYCASWDDSLRGYVFGTGTKVTVLG
21000	84100	161000	–	–	KB_A09 Fab (Fab, V domains shown) VH: EVQLVESGGGLVRPGGSLRLSCAASGFTFSSYAMSWVRQAPGKGLEWVSAISGSGGSTYYADSVKGRFTISRDNTKNSLYLQMTSLRADDTAFYYCVKDFGPGYGTGWFDYWGPGTLVTVSS VL: AVNWYQQLPGKAPKLLIYAAERCPRILMRCKQDSDCLAGCVCGPNGFCGTPSGVPDRFSGSIDTFSNSASLTISGLKTEDEADYYCQSYDSSHHWVFGGGTKLTVLG
41700	146000	238000	–	–	KB_C10 Fab (Fab, V domains shown) VH: EVQLVESGGGLVRPGGSLRLSCAASGFTFSSYAMSWVRQAPGKGLEWVSAISGSGGSTYYADSVKGRFTISRDNTKNSLYLQMTSLRADDTAFYYCVKDFGPGYGTGWFDYWGPGTLVTVSS VL: AVNWYQQLPGKAPKLLIYAAGPCPRILMRCKQDSDCLAGCVCGPNGFCGADSGVSDRFSGSKSGTSASLAITGLQAEDEGDYYCAAWDDSLNGLVFGGGTKVTVLG
–	–	–	121000	100	KB_A05 (scFv, V domains shown) VH: EVQLVESGGGLVRPGGSLRLSCAASGFTFSSYAMSWVRQAPGKGLEWVSAISGSGGSTYYADSVKGRFTISRDNTKNSLYLQMTSLRADDTAFYYCVKDFGPGYGTGWFDYWGPGTLVTVSS VL: AVNWYQQLPGKAPKLLIYAADKCPRILMRCKQDSDCLAGCVCGPNGFCGGGSGIPERFSGSKSGTSASLAISGLRSEDEADYYCATWDDNLNGVVFGGGTKLTVLG

The next lines start with the binder.

Binder	TRF signal for 0.6 ug/mL Fab (trypsin [1])	TRF signal for 2.4 ug/mL Fab (trypsin [1])	TRF signal for 10 ug/mL Fab (trypsin [1])	trypsin binding signal (FU) (trypsin [2])	% reduction in binding signal (trypsin [3]) [%]
KB_A06 (scFv, V domains shown) VH: EVQLVESGGGLVRPGGSLRLSCAASGFTFSSYAMSWVRQAPGKGLEWVSAISGSGGSTYYADSVKGRFTISRDNTKNSLYLQMTSLRADDTAFYYCVKDFGPGYGTGWFDYWGPGTLVTVSS VL: AVNWYQQLPGKAPKLLIYAAVRCPRILMRCKQDSDCLAGCVCGPNGFCGTPSGIPERFSGSIDRSTNSASLTISGLKTEDEADYYCQSYDSSNLNWVFGGGTKLTVLG	–	–	–	24400	100
KB_A06 Fab (Fab, V domains shown) VH: EVQLVESGGGLVRPGGSLRLSCAASGFTFSSYAMSWVRQAPGKGLEWVSAISGSGGSTYYADSVKGRFTISRDNTKNSLYLQMTSLRADDTAFYYCVKDFGPGYGTGWFDYWGPGTLVTVSS VL: AVNWYQQLPGKAPKLLIYAAVRCPRILMRCKQDSDCLAGCVCGPNGFCGTPSGIPERFSGSIDRSTNSASLTISGLKTEDEADYYCQSYDSSNLNWVFGGGTKLTVLG	108000	212000	242000	–	–
KB_A09 (scFv, V domains shown) VH: EVQLVESGGGLVRPGGSLRLSCAASGFTFSSYAMSWVRQAPGKGLEWVSAISGSGGSTYYADSVKGRFTISRDNTKNSLYLQMTSLRADDTAFYYCVKDFGPGYGTGWFDYWGPGTLVTVSS VL: AVNWYQQLPGKAPKLLIYAAERCPRILMRCKQDSDCLAGCVCGPNGFCGTPSGVPDRFSGSIDTFSNSASLTISGLKTEDEADYYCQSYDSSHHWVFGGGTKLTVLG	–	–	–	57700	100
KB_A07 Fab (Fab, V domains shown) VH: EVQLVESGGGLVRPGGSLRLSCAASGFTFSSYAMSWVRQAPGKGLEWVSAISGSGGSTYYADSVKGRFTISRDNTKNSLYLQMTSLRADDTAFYYCVKDFGPGYGTGWFDYWGPGTLVTVSS VL: YLNWYQQKPGKAPKLLIYAAGVCPRILMRCKQDSDCLAGCVCGPNGFCGSRSGVPSRFSGSGSGTDFTLTISSLQPEDFATYYCQQGASPPYTFGQGTKVEIKR	108000	201000	226000	–	–
KB_A02 Fab (Fab, V domains shown) VH: EVQLVESGGGLVRPGGSLRLSCAASGFTFSSYAMSWVRQAPGKGLEWVSAISGSGGSTYYADSVKGRFTISRDNTKNSLYLQMTSLRADDTAFYYCVKDFGPGYGTGWFDYWGPGTLVTVSS VL: AVNWYQQLPGKAPKLLIYAAAKCPRILMRCKQDSDCLAGCVCGPNGFCGGASGVSDRFSGSIDSSSNSASLTISGLKPEDEGDYYCQSYDSSNRWVFGGGTKVTVLG	93800	221000	255000	–	–
KB_B01 Fab (Fab, V domains shown) VH: EVQLVESGGGLVRPGGSLRLSCAASGFTFSSYAMSWVRQAPGKGLEWVSAISGSGGSTYYADSVKGRFTISRDNTKNSLYLQMTSLRADDTAFYYCVKDFGPGYGTGWFDYWGPGTLVTVSS VL: AVNWYQQLPGKAPKLLIYAAAGCPRILMRCKQDSDCLAGCVCGPNGFCGTRSGVSDRFSGSKSGTSASLAISGLRSEDEADYYCAAWDDSLRAYVFGTGTKLTVLG	54800	153000	257000	–	–
KB_A03 (scFv, V domains shown) VH: EVQLVESGGGLVRPGGSLRLSCAASGFTFSSYAMSWVRQAPGKGLEWVSAISGSGGSTYYADSVKGRFTISRDNTKNSLYLQMTSLRADDTAFYYCVKDFGPGYGTGWFDYWGPGTLVTVSS VL: AVNWYQQLPGKAPKLLINAADRCPRILMRCKQDSDCLAGCVCGPNGFCGTNSGVPDRFSGSSSGNTASLTITGAQAEDEADYYCNSRDSSGNNWVFGGGTKVTVLG	–	–	–	28700	90
KB_C08 Fab (Fab, V domains shown) VH: EVQLVESGGGLVRPGGSLRLSCAASGFTFSSYAMSWVRQAPGKGLEWVSAISGSGGSTYYADSVKGRFTISRDNTKNSLYLQMTSLRADDTAFYYCVKDFGPGYGTGWFDYWGPGTLVTVSS VL: AVNWYQQLPGKAPKLLIYAAAVCPRILMRCKQDSDCLAGCVCGPNGFCGTRSGIPERFSGSKSGTSAFLAISGLRSEDEADYYCAAWDDSLSGVVFGGGTKLTVLG	51100	131000	183000	–	–
KB_A10 Fab (Fab, V domains shown) VH: EVQLVESGGGLVRPGGSLRLSCAASGFTFSSYAMSWVRQAPGKGLEWVSAISGSGGSTYYADSVKGRFTISRDNTKNSLYLQMTSLRADDTAFYYCVKDFGPGYGTGWFDYWGPGTLVTVSS VL: AVNWYQQLPGKAPKLLIYAAGGCPRILMRCKQDSDCLAGCVCGPNGFCGSNSGVPDRFSGSKSGNTASLTISGLQSEDEADYYCAAWDDSLSGVVFGGGTQLTVLG	14600	71900	68700	–	–
KB_B02 Fab (Fab, V domains shown) VH: EVQLVESGGGLVRPGGSLRLSCAASGFTFSSYAMSWVRQAPGKGLEWVSAISGSGGSTYYADSVKGRFTISRDNTKNSLYLQMTSLRADDTAFYYCVKDFGPGYGTGWFDYWGPGTLVTVSS VL: AVNWYQQLPGKAPKLLIYAAVGCPRILMRCKQDSDCLAGCVCGPNGFCGTGSGIPERFSGSKSGNTASLTISGLQAEDEGDYYCAAWDDSLSGPVFGGGTKLTVLG	2340	15900	56600	–	–
